The target of experiment [1] is human β-NGF (human) (UniProt P01138). The experiment can be described thus: ELISA, plate coated with 0.5 µg/mL human β-NGF; antibody 1 µg/mL diluted 1:9; duplicate well 1.
For experiment [2] the target is unchanged. The experiment can be described thus: ELISA, plate coated with 0.5 µg/mL human β-NGF; antibody 1 µg/mL diluted 1:243; duplicate well 2.
Experiment [3] has the same target. In words: ELISA, plate coated with 0.5 µg/mL human β-NGF; antibody at 1 µg/mL; duplicate well 1.
The target is the same in experiment [4]. In words: ELISA, plate coated with 0.5 µg/mL human β-NGF; antibody 1 µg/mL diluted 1:27; duplicate well 1.
For experiment [5] the target is unchanged. The experiment can be described thus: ELISA, plate coated with 0.5 µg/mL human β-NGF; antibody 1 µg/mL diluted 1:27; duplicate well 2.
Experiment [6] shares this target. In words: ELISA, plate coated with 0.5 µg/mL human β-NGF; antibody 1 µg/mL diluted 1:729; duplicate well 2.
The target is the same in experiment [7]. In words: ELISA, plate coated with 0.5 µg/mL human β-NGF; antibody 1 µg/mL diluted 1:3; duplicate well 2.
Experiment [8] shares this target. In words: ELISA, plate coated with 0.5 µg/mL human β-NGF; antibody 1 µg/mL diluted 1:3; duplicate well 1.
Experiment [9] shares this target. The experiment can be described thus: ELISA, plate coated with 0.5 µg/mL human β-NGF; antibody 1 µg/mL diluted 1:9; duplicate well 2.
The target is the same in experiment [10]. In words: ELISA, plate coated with human β-NGF, anti-human IgG-HRP detection, 4-parameter fit.
Experiment [11] has the same target. In words: ELISA, plate coated with 0.5 µg/mL human β-NGF; antibody at 1 µg/mL; duplicate well 2.
The target in experiment [12] is NGF (as used in the TF-1 cell proliferation assays). In words: cell-based or functional assay.
For experiment [13], the target named is human β-NGF (human) (UniProt P01138). In words: ELISA, plate coated with 0.5 µg/mL human β-NGF; antibody 1 µg/mL diluted 1:243; duplicate well 1.
Experiment [14] shares this target. In words: ELISA, plate coated with 0.5 µg/mL human β-NGF; antibody 1 µg/mL diluted 1:729; duplicate well 1.
Experiment [15] shares this target. In words: ELISA, plate coated with 0.5 µg/mL human β-NGF; antibody 1 µg/mL diluted 1:81; duplicate well 2.
The target is the same in experiment [16]. In words: ELISA, plate coated with 0.5 µg/mL human β-NGF; antibody 1 µg/mL diluted 1:81; duplicate well 1.

pEC50: −log10 of the molar value.

human β-NGF (human), sequence (P01138 122-241 limits assumed): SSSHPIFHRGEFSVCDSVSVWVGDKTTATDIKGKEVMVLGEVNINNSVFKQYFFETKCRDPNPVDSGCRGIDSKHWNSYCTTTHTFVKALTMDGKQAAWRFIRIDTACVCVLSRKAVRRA

As for Pfizer antibody Tanezumab, the OD (450 nm) in the experiment with human β-NGF (human) [1] was 2.48 OD (450 nm); with human β-NGF (human) [2], 0.609 OD (450 nm); in the experiment with human β-NGF (human) [3] it was 2.77 OD (450 nm); in the experiment with human β-NGF (human) [4], 2.17 OD (450 nm); with human β-NGF (human) [5] it was 1.97 OD (450 nm); with human β-NGF (human) [6] it was 0.245 OD (450 nm). Moreover, the OD (450 nm) with human β-NGF (human) [7] is 2.55 OD (450 nm); with human β-NGF (human) [8] it was 2.66 OD (450 nm); with human β-NGF (human) [9], 2.27 OD (450 nm); with human β-NGF (human) [11], 2.71 OD (450 nm); in the experiment with human β-NGF (human) [13] it was 0.56 OD (450 nm); with human β-NGF (human) [14], 0.227 OD (450 nm). Besides, the OD (450 nm) in the experiment with human β-NGF (human) [15] was 1.27 OD (450 nm); with human β-NGF (human) [16] it was 1.18 OD (450 nm). For the same substance, in the experiment with human β-NGF (human) [10], the pEC50 was 9.99. Also, the neutralizing EC50 to NGF (inhibition of NGF-induced TF-1 cell proliferation, CCK-8) in experiment [12] was determined as 0.21 nM.

Values taken from US20210155683A1.
